From patent US20100158924A1, “Expression of the cysteine protease legumain in vascular and inflammatory diseases” (Wyeth, LLC, priority 2006, published 2010)
* marks the point of attachment. Fmoc = O=C(OCC1c2ccccc2-c2ccccc21)*

Assays:
mouse legumain = biological target: T1, mouse legumain (Mus musculus, UniProt O89017); experiment: HEK293 cell-surface legumain activity assay (Z-AAN-MCA hydrolysis); format: cell-based; conditions: inhibitor at 100 nM, live HEK293 cells overexpressing mouse legumain, pH 5.8, FIG. 7
T1 construct: expressed in transfected cells; host or cells: HEK293 cells infected with adenovirus
T1 sequence (O89017 18-325): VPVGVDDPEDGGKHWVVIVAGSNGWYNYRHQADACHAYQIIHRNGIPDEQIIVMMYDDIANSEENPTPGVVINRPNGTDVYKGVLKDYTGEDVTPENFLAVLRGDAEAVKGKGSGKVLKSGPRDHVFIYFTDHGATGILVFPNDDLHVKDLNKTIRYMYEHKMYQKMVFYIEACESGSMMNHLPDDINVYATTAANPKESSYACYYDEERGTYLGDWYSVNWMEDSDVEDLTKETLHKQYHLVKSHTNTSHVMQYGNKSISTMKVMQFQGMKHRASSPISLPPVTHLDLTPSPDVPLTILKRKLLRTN
Procedure: HEK293 cells were plated in 96-well black tissue culture plate (BD Biosciences) and infected with adenovirus expressing mouse legumain at MOI of 10. 24 hours post infection, the cells were washed once with legumain assay buffer [39.5 mM citric acid, 125 mM Na2HPO4 (pH 5.8), 1 mM EDTA, 0.8% NaCl], and 50 μl of assay buffer containing 10 nM of the substrate Z-AAN-MCA (Peptide Institute, Louisville, Ky.) was added to each well. The protease inhibitors cystatin C(R&D Systems, Minneapolis, Minn.) or E64 (Sigma) were included in the assay buffer at a concentration of 100 nM. The plates were incubated at 37° C. for 10 min and measured for fluorescence in a VICTOR 3™ fluorescence plate reader (PerkinElmer, Wellesley, Mass.) using an excitation filter of 360 nm and an emission filter of 460 nm. Repeated measurements were carried out once every 5 min over a period of 20 min at room temperature. The increase of fluorescence over time was plotted.

legumain = conditions: background literature; cited from earlier work
primary human monocytes = experiment: Human monocytes migration assay (modified Boyden chamber); format: cell-based; conditions: for chemoattractant function: data not shown
Procedure: Human monocytes were isolated from the blood of healthy donors using the negative selection method with the Monocyte Isolation Kit (Miltenyi Biotech) according to manufacturer's instructions. The purity of isolated monocytes was confirmed by flow cytometry on CD 14-stained cells. Cells were tested in a modified Boyden chamber assay using Multi Screen 96-well filtration plate (Millipore, 5.0 μm pore size). Serum-starved monocytes were added to the top chamber (20,000 cells/well), and serum-free culture medium was added to the bottom chamber with or without purified legumain (R&D Systems). VEGF (R&D Systems) was used as a positive control. Cells that migrated into the bottom chamber were quantified using a luminescent cell viability assay (CellTiter-Glo® Assay, Promega, Madison, Wis.) at 2 hours.

HUVECs [1] = experiment: In vitro wound-healing assay, HUVECs; format: cell-based, human
Procedure: (§1) HEK293 cells (ATCC, Manassas, Va.) used at passage 10 and HUVECs (Cambrex, Walkersville, Md.) used at passage 3 were seeded onto single-chamber slides (Lab-Tek cat# 177410, Campbell, Calif.). HEK293 cells were cultured to >80% confluence in DMEM supplemented with 10% FBS and 1% penicillin/streptomycin/L-glutamine (Cat# 10378-016, Gibco, Invitrogen, Carlsbad, Calif.), and HUVECs were grown to >90% confluence in EGM (Cat# CC-3124, Cambrex, East Rutherford, N.J.). After washing the cells in serum-free medium, the monolayers were mechanically wounded using a cell scraper (Cat# 3010, Costar [Corning], Fisher Scientific, Pittsburgh, Pa.) to obtain a rectangular denuded area of 2.0×1.7 cm^2. Wounded cells were then incubated in serum-free medium supplemented with 0.05% delipidized BSA (BD Biosciences, Bedford, Mass.) and with VEGF (10 ng/mL, R&D Systems, Minneapolis, Minn.) or legumain (10 ng/mL or 25 ng/mL, R&D Systems, Minneapolis, Minn.) for 24 hours (HEK293 cells) or 20 hours (HUVECs). Wound healing was quantified by measuring the number of cells present in the area of the initial wound using a luminescent cell viability assay (CellTiter-Glo® Assay, Promega, Madison, Wis.).

HUVECs [2] = experiment: Modified Boyden chamber Matrigel invasion assay, HUVECs; format: cell-based, human
Source text: In a modified Boyden chamber assay, 25,000 serum starved HUVECs loaded into the top chamber were allowed to invade a Matrigel coated PET membrane ([…], Becton Dickinson, BioCoat Angiogenesis System: Endothelial Cell Invasion) in response to purified legumain added to the bottom chamber. Cells that invaded through the Matrigel matrix were quantified using a luminescent cell viability assay (CellTiter-Glo® Assay, Promega, Madison, Wis.). VEGF was used a positive control.

HEK293 cells = experiment: In vitro wound-healing assay, HEK293 cells; format: cell-based, human; conditions: legumain at 10 ng/mL and 25 ng/mL, 24 hours, p<0.05, FIG. 8
Procedure: as §1

Q: What does the source list for `CC(C)C[C@H](NC(=O)[C@H]1O[C@@H]1C(=O)O)C(=O)NCCCCN=C(N)N` (relative stereo) [E64, trans-epoxysuccinyl-L-leucylamido-(4-guanidino)butane, reference compound]?
A: inhibition of cell-surface legumain activity (mouse legumain): not; effect on legumain activity (legumain): unaffected

Q: For `[Cu+2]` [Cu2+], which “effect on legumain activity” value (legumain) is on record?
A: The value was “inhibition”.

Q: Which “effect on legumain activity” value (legumain) does the source give for `[Hg+2]` [Hg2+] here?
A: The value was “inhibition”.

Q: Which “effect on legumain activity” value (legumain) does the source give for `Cc1cccc(C)c1C(=O)OCC(=O)C(CC(N)=O)NC(=O)OCc1ccccc1` (stereo not shown) [MV026630, 2,6-dimethyl-benzoic acid 3-benzyloxycarbonylamino-4-carbamoyl-2-oxo-butyl ester] here?
A: The value was “inhibit”.

Q: Which “effect on legumain activity” value (legumain) does the source give for `C[C@H](NC(=O)[C@H](Cc1ccccc1)NC(=O)OCc1ccccc1)C(=O)C=[N+]=[N-]` [Z-Phe-Ala-CHN2] here?
A: The value was “unaffected”.

Q: Which “effect on legumain activity” value (legumain) does the source give for `CC(=O)N[C@@H](CC(C)C)C(=O)N[C@@H](CC(C)C)C(=O)N[C@H](C=O)CCCNC(=N)N` [leupeptin] here?
A: Its value is “unaffected”.

Q: For `O=S(=O)(O)c1cc[c]([Hg][Cl])cc1` [p-chloromercuribenzene-sulfonic acid], which “effect on legumain activity” value (legumain) is on record?
A: The value was “inhibition”.

Q: With Fmoc-AENK-NH2 as the molecule, how does the “effect on legumain activity” value (legumain) read?
A: Its value is “inhibitor”.

Q: Which results are given for VEGF [reference compound]?
A: number of migrated cells compared with legumain at 25 ng/mL (primary human monocytes; VEGF at 10 ng/mL, positive control): similar; increase in migration compared with legumain at 25 ng/mL (HUVECs [1]; VEGF at 10 ng/mL, positive control, FIG. 9): same extent; invasion response compared with 25 ng/mL legumain (HUVECs [2]; 10 ng/mL VEGF, 22 hour period): similar

B1: ovocystatin: cystatin reported to inhibit legumain (protein, UniProt P01038 24-139, looked up)
Cystatin: SEDRSRLLGAPVPVDENDEGLQRALQFAMAEYNRASNDKYSSRVVRVISAKRQLVSGIKYILQVEIGRTTCPKSSGDLQSCEFHDEPEMAKYTTCTFVVYSIPWLNQIKLLESKCQ
Q: With B1 as the molecule, how does the “effect on legumain activity” value (legumain) read?
A: The value was “inhibited”.

B2: cystatin C: protease inhibitor cystatin C (R&D Systems) (protein, UniProt P01034 27-146, looked up)
Cystatin-C: SSPGKPPRLVGGPMDASVEEEGVRRALDFAVGEYNKASNDMYHSRALQVVRARKQIVAGVNYFLDVELGRTTCTKTQPNLDNCPFHDQPHLKRKAFCSFQIYAVPWQGTMTLSKSTCQDA
Q: With B2 as the molecule, how does the “inhibition of cell-surface legumain activity” value (mouse legumain) read?
A: Its value is “inhibited”.

Q: And the “effect on legumain activity” value (legumain)?
A: The value was “inhibited”.

B3: cystatin M: cystatin reported to inhibit legumain (protein, UniProt Q15828 29-149, looked up)
Cystatin-M: RPQERMVGELRDLSPDDPQVQKAAQAAVASYNMGSNSIYYFRDTHIIKAQSQLVAGIKYFLTMEMGSTDCRKTRVTGDHVDLTTCPLAAGAQQEKLRCDFEVLVVPWQNSSQLLKHNCVQM
Q: With B3 as the molecule, how does the “effect on legumain activity” value (legumain) read?
A: The value was “inhibited”.

B4: legumain: purified proform of the lysosomal cysteine protease legumain (R&D Systems), tested as chemoattractant (protein)
chain: T1 sequence (O89017 18-325)
Q: Which “fold increase in migration of monocytes relative to control” value (primary human monocytes; 25 ng/mL, 2 hours) does the source give for B4 here?
A: The value was 2.3 fold.

Q: And the “migration of human monocytes towards legumain” value (primary human monocytes; Boyden chamber, 2 hours, FIG. 6)?
A: Its value is “dose-dependent increase”.

Q: And the chemoattractant function (primary human monocytes)?
A: The chemoattractant function was “retain the chemoattractant function”.

Q: And the “minimal effective concentration of legumain” value (primary human monocytes; migration of primary human monocytes, Boyden chamber, 2 hours)?
A: Its value is 25 ng/mL.

Q: What about the “cell migration relative to control” value (HEK293 cells) of the same molecule?
A: Its value is “significant increase in cell migration”.

Q: And the “cell migration relative to control” value (HUVECs [1]; legumain at 25 ng/mL, 20 hours, p<0.05, FIG. 9)?
A: Its value is “significant increase in cell migration”.

Q: What about the “number of cells invading a Matrigel coated membrane” value (HUVECs [2]; 22 hour period, FIG. 10) of the same molecule?
A: The value was “dose-dependent increase”.

Q: What about the “cell invasion relative to control” value (HUVECs [2]; legumain at 25 ng/mL, p<0.05, FIG. 10) of the same molecule?
A: Its value is “significant increase in cell invasion”.

B5: heat-denatured form: heat-denatured form of legumain (protein, UniProt Q99538 18-323, looked up)
Legumain: VPIDDPEDGGKHWVVIVAGSNGWYNYRHQADACHAYQIIHRNGIPDEQIVVMMYDDIAYSEDNPTPGIVINRPNGTDVYQGVPKDYTGEDVTPQNFLAVLRGDAEAVKGIGSGKVLKSGPQDHVFIYFTDHGSTGILVFPNEDLHVKDLNETIHYMYKHKMYRKMVFYIEACESGSMMNHLPDNINVYATTAANPRESSYACYYDEKRSTYLGDWYSVNWMEDSDVEDLTKETLHKQYHLVKSHTNTSHVMQYGNKTISTMKVMQFQGMKRKASSPVPLPPVTHLDLTPSPDVPLTIMKRKLMNTN
modifications: heat-denatured
notes: heat-denatured form of legumain
Q: For B5, which chemoattractant function (primary human monocytes) is on record?
A: Its chemoattractant function is “retain the chemoattractant function”.
